# PMC2133975
# B1: axonin-1 purified from the ocular vitreous fluid of chicken embryos, conjugated to Covaspheres (natural protein)
# chain: QSGMRSYGPVFEEQPAHTLFPEGSAEEKVTLTCRARANPPATYRWKMNGTELKMGPDSRYRLVAGDLVISNPVKAKDAGSYQCVATNARGTVVSREASLRFGFLQEFSAEERDPVKITEGWGVMFTCSPPPHYPALSYRWLLNEFPNFIPADGRRFVSQTTGNLYIAKTEASDLGNYSCFATSHIDFITKSVFSKFSQLSLAAEDARQYAPSIKAKFPADTYALTGQMVTLECFAFGNPVPQIKWRKLDGSQTSKWLSSEPLLHIQNVDFEDEGTYECEAENIKGRDTYQGRIIIHAQPDWLDVITDTEADIGSDLRWSCVASGKPRPAVRWLRDGQPLASQNRIEVSGGELRFSKLVLEDSGMYQCVAENKHGTVYASAELTVQALAPDFRLNPVKRLIPAARSGKVIIPCQPRAAPKATVLWTKGTELLTNSSRVTITADGTLILQNISKSDEGKYTCFAENFMGKANSTGILSVRDATKITLAPSSADINVGENLTLQCHASHDPTMDLTFTWSLDDFPIDLDKSEGHYRRASVKEAVGDLAIVNAQLKHSGRYTCTAQTVVDSTSESATLTVRGPPGPPGGVVVRDIGDTTVQLSWSRGFDNHSPIARYSIEARTLLSNKWKQMRTNPVNIEGNAETAQVVNLIPWMDYEFRVLASNILGVGEPSLPSSKIRTKEAAPTVAPSGLGGGGGAPNELIINWTPTLRDYQNGDGFGYILSFRKKGTQGWLTARVPHAESLHYVYRNESIGPYTPFEVKIKAYNRKGEGPESLTAIVYSAEEEPKVAPFRVTAKAVLSSEMDVSWEPVEQGDMTGVLLGYEIRYWKDGDKEEAADRVRTAGLVTSAHVTGLNPNTKYHVSVRAYNRAGAGPPSPSTNITTTKPPPRRPPGNISWTLTGSTVTIKWDPVVAQADESAVTGYKMLYRQDSHSAPTLYLASKSRIDIPVPEDFTHAFVQIRVTGPGGDGTPAEVHIVRNSGTSMMVEDSVTRPVPHAAIITTNSLAMVALIRYLEL
# Experiments:
# [1] = target: axonin-1, recombinant, expressed on the surface of COS-7 cells (chicken) (UniProt P28685); assay: binding of protein-conjugated fluorescent microspheres
# [2] = target: NgCAM, recombinant, expressed on the surface of COS-7 cells (chicken); assay: as above
Molecule,percent of expressing cells that bound Covaspheres [1],percent of expressing cells that bound Covaspheres [2]
"NgCAM purified from chicken brain membranes, conjugated to Covaspheres (from UniProt Q03696 21-1266) (natural protein)",15%,61%
B1,–,53%
